Among the data in PMC6643034 (2019) are Kd values, retold here.

B2: CXCL4 (ligand)
chain: EAEEDGDLQCLCVKTTSQVRPRHITSLEVIKAGPHCPTAQLIATLKNGRKICLDLQAPLYKKIIKKLLES
B12: CXCL13 (ligand)
chain: VLEVYYTSLRCRCVQESSVFIPRRFIDRIQILPRGNGCPRKEIIVWKKNKSIVCVDPQAEWIQRMMEVLRKRSSSTLPVPVFKRKIP
B15: CXCL11 (ligand)
chain: FPMFKRGRCLCIGPGVKAVKVADIEKASIMYPSNNCDKIEVIITLKENKGQRCLNPKSKQARLIIKKVERKNF

Among the targets are CXCL5 (human); CXCL2 (human, UniProt P19875 35-107); CXCL3 (human, UniProt P19876 35-107); CXCL6 (human); CXCL1 (human, UniProt P09341 35-107); P1074_IXORI (Ixodes ricinus, UniProt A0A0K8RDH6 29-96); CXCL12 (human, UniProt P48061 22-93); CXCL8 (human).
Common to all, as to experiment: BLI
The target of experiment [1] is CXC-motif chemokine ligand 10 (CXCL10) (human, UniProt P02778 22-98).
The experiment “CXCL13” has as its target B12.
The experiment “CXCL11” deals with B15.
The target of the experiment “CXCL4” is B2.
In the next experiment the target is T1, CXCL7 (human).
T1 chain: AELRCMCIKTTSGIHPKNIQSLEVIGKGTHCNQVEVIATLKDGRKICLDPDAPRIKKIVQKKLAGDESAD

Chain of CXCL8 (human) (chain, as listed by the source): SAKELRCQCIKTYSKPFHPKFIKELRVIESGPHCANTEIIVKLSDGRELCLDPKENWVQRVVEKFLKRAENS

B1: P1090_IXORI (natural protein)
chain: GSKELSGPESSENSIEAAFCDTNCTEGTDGVWSGCSAGCFCVHVGNSTVGRCMTFNGVD
Regarding B1, the Kd – broadly, the free concentration of one partner at which half of the binding sites on the other are occupied at equilibrium, for simple one-to-one binding – with CXCL5 was 43 nM; in the experiment with CXCL2, 3.03 nM; in experiment [1], 23.9 nM; with CXCL13, 12.5 nM; in the experiment with CXCL3, 7.67 nM; in the experiment with CXCL11, 3.85 nM. In addition, the dissociation constant (Kd) in the experiment with CXCL6 was 2.82 nM; with CXCL1, 3.55 nM.

B2 came in with a Kd with P1074_IXORI of 157 nM.

B3: P1126 (natural protein)
chain: DGGKPQILQRTDKSTDSEWDPQTCPETCIPSKNITCSDGCVCVKLGEEEEGTCFNMTGVDWLGSPSDD
modifications: also: glycosylated
With B3, the Kd with CXCL5 came out at 12.1 nM; with CXCL2, 5.11 nM; in experiment [1] it was 7.9 nM; with CXCL3 it was 13.3 nM; in the experiment with CXCL11, 394 nM; with CXCL6, 9.12 nM. For the same molecule, the Kd with CXCL4 came to 393 nM; with CXCL7, 6.05 nM; with CXCL1, 10.5 nM.

B4: P1134 (natural protein)
chain: NEEVFTVEYCGMNCTQKSDGTWTECSGKNKDCRCYHESDAREGLCLSTEYTDFSQFETPSNSDLEAATPRPRKTLYPVRNPHGPKTRGLGYDKRILRDRVKFLI
modifications: glycosylated (periodic acid–Schiff staining)
B4 gave a dissociation constant (Kd) in the experiment with CXCL1 of 27.3 nM. That is a double-digit nanomolar value.

B5: P1124_IXORI (natural protein)
chain: DSKGTSDSQDSTKSIKVDFCETNCTKTDGGWTGCTGDCICVSVGDSIEGRCMDFG
Turning to B5, the equilibrium dissociation constant (Kd) was 26.4 nM with CXCL5; 212 nM with CXCL12; 13.8 nM with CXCL2; 256 nM with CXCL13; 8.84 nM with CXCL3; 7.61 nM in the experiment with CXCL1.

B6: P1078_IXORI (natural protein)
chain: GSKGSSAQQSSHDSIKAEFCETNCTMKTGGKWTQCHGGCFCVHVGNETVGRCIKLDGDYDYPSSKHEE
B6: the Kd with CXCL5 was found to be 39.2 nM; with CXCL2, 68.3 nM; in the experiment with CXCL13, 255 nM; in the experiment with CXCL3, 43.8 nM; in the experiment with CXCL11, 16.7 nM; with CXCL1, 6.35 nM.

B7: P1104 (natural protein)
chain: ESKEASASQGPGKSFKVEFCETNCTENNGVWSGCTGDCICVSVGDSKEGRCMDLGDKVIDTPVAQG
modifications: also: glycosylated
Consider B7, for which the Kd in the experiment with CXCL5 is 24.5 nM; with CXCL12, 67.8 nM; with CXCL2, 82.3 nM; in the experiment with CXCL13, 220 nM; with CXCL3, 43.7 nM; in the experiment with CXCL6, 34.3 nM. The Kd with CXCL1 came out at 14.4 nM.

B8: P1170_IXORI (natural protein)
chain: LGDEDQLFSVEYCGTNCTQQDDGKWTPCSGKNGKCKCYHEDGKRYGLCLYTEYTDFSQYPNPEGSEIENTRPRP
With B8, the Kd turned out to be 12.3 nM with CXCL8 and 59.6 nM with CXCL1.

B9: Evasin 3 (EVA3) (natural protein)
chain: DGGLVSTIESRTSGDGADNFDVVSCNKNCTSGQNECPEGCFCGLLGQNKKGHCYKIIGNLSGEPPVVRR
modifications: also: glycosylated
Consider B9, for which the Kd with CXCL5 turned out to be 24.9 nM; with CXCL2, 7.49 nM; with CXCL8, 2.57 nM; with CXCL3 it was 7.37 nM; in the experiment with CXCL6 it was 1.03 nM; with CXCL1 it was 5.73 nM.

B10: P675 (natural protein)
chain: GSNQLSGPQSSANSNDAVFCDTNCTQGTDGAWSGCRGDCFCVHVGNSTEGRCIELIGDFDYSTPGAED
modifications: also: glycosylated
With B10, the Kd with CXCL5 is 34.2 nM; with CXCL2, 24.8 nM; in [1] it was 3120 nM; in the experiment with CXCL13, 582 nM; in the experiment with CXCL3, 35.7 nM; in the experiment with CXCL11, 7.73 nM. The figures for the Kd in the experiment with CXCL4 and in the experiment with CXCL1 were 422 nM and 9.99 nM, respectively.

B11: P1080_IXORI (natural protein)
chain: SAGSKGSSAPQSSGDSVVAEFCDTNCTMKKDGKWTECNGDCFCVHVGNETVGRCMRLDGDYDYTSSKTTRRNKKTRNGLCRLDRNRTTVDYPERNTREP
As for B11, the Kd with CXCL5 stood at 55.1 nM; in experiment [1], 1260 nM; with CXCL13 it was 1110 nM; with CXCL3 it was 124 nM; with CXCL6, 61 nM; with CXCL4, 2310 nM.

Regarding B12, in the experiment with P1074_IXORI, the Kd is 95.8 nM.

B13: P1172_IXORI (natural protein)
chain: FLLKSQLCYCLFGIELIGAGIHALHEDEIFTVDYCGTNCTKQSNGSWTTCPGNCSCYHEDGKTDGFCLSTEYTDFTQFPNLTSEEMDAATPRPE
B13: the equilibrium dissociation constant (Kd) was determined as 59.3 nM with CXCL5, 26 nM in the experiment with CXCL2, 26.7 nM with CXCL8 and 5.59 nM with CXCL1.

B14: P942 (natural protein)
chain: DGGNQLSGPQSSANSNEAVFCDTNCTQGTDEAWSGCRGDCFCVYVGNSTEGRCMMLSGDFDYSTPGAED
modifications: also: glycosylated
As to B14, the Kd was found to be 21.1 nM with CXCL5; 6.48 nM with CXCL2; 133 nM in experiment [1]; 39.5 nM with CXCL13; 5.04 nM in the experiment with CXCL3; 12.4 nM with CXCL11. Also, the Kd with CXCL6 is 7.28 nM; with CXCL4 it was 148 nM; with CXCL1, 3.09 nM.

Take B15: the affinity with P1074_IXORI, expressed as Kd, was 12 nM.

B16: P1100_IXORI (natural protein)
chain: GSKGSSASQSSDNSVVAKFCDTNCTINEGGKWTECKGGCFCVHVGNETVGRCMKLDGDYDYPSPKPEE
Consider B16, for which the Kd with CXCL5 amounted to 50.8 nM; in experiment [1], 380 nM; with CXCL3, 55.9 nM; with CXCL11 it was 102 nM; with CXCL6 it was 15.2 nM; in the experiment with CXCL1, 49.9 nM.

B17: P1142 (natural protein)
chain: DGGKPQILQRTDHSTDSDWDPQMCPETCNPSKNISCSSECLCVTLGGGDETGTCFNMSGVDWLGHAQASDGHNDGGGASAWSHPQFEKLEHHHHHHHH
modifications: glycosylated (periodic acid–Schiff staining)
Turning to B17, the Kd with CXCL5 was determined as 9.81 nM; in the experiment with CXCL2 it was 2.14 nM; in experiment [1] it was 7.46 nM; with CXCL3 it was 5.65 nM; with CXCL11, 322 nM; with CXCL6 it was 6.27 nM. Moreover, the values for the Kd with CXCL4, with CXCL7 and with CXCL1 were 381 nM, 1.83 nM and 4.61 nM, respectively.

B18: P1086_IXORI (natural protein)
chain: GSKGQRASQVSETSITAEFCDTSCTQGTDKTWSGCSGDCFCVHVGNDTEGRCMRWDGDYPSAEEEE
On to B18, for which the dissociation constant (Kd) came out at 18.7 nM in experiment [1] and 15.2 nM with CXCL3.
